Experiments:
[1] = biological target: T1, CD3 on human donor PBMC / Pan T effector cells (human, UniProt P07766 23-207; P09693 23-182; P04234 22-171; P20963 22-164); test: cell-based or functional assay
[2] = biological target: T1, CD3 on human donor PBMC / Pan T …; test: cell-based or functional assay; remark: listed apart in the source

T1 sequence (P07766 23-207, chain 1 of 4): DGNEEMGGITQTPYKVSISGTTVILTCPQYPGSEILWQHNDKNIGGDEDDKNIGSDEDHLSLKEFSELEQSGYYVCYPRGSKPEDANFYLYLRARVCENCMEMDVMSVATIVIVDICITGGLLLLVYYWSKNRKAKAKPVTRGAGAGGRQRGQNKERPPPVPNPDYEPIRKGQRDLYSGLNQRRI
T1 sequence (P09693 23-182, chain 2 of 4): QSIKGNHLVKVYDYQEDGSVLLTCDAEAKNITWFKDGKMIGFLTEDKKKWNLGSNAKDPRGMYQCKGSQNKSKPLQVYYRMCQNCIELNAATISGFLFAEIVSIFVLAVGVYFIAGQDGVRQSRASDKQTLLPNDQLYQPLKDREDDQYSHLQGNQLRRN
T1 sequence (P04234 22-171, chain 3 of 4): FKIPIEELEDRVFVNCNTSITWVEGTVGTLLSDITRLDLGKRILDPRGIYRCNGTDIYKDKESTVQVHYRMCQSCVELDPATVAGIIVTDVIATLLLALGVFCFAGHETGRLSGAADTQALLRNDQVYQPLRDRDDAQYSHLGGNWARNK
T1 sequence (P20963 22-164, chain 4 of 4): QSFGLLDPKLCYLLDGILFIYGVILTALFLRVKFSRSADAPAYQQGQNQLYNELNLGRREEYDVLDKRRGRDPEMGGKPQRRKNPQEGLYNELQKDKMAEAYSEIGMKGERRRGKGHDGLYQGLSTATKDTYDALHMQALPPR

B1: CD3 × CD33-BspAb38 (bispecific antibody)
chain 1: not shown
chain 2: EVQLVQSGAEVKKPGSSVKVSCKASGYTITDSNIHWVRQAPGQSLEWIGYIYPYNGGTDYNQKFKNRATLTVDNPTNTAYMELSSLRSEDTAFYYCVNGNPWLAYWGQGTLVTVSSASTKGPSVFPLAPSSKSTSGGTAALGCLVKDYFPEPVTVSWNSGALTSGVHTFPAVLQSSGLYSLSSVVTVPSSSLGTQTYICNVNHKPSNTKVDKRVEPKSCDKTHTCPPCPAPEFEGGPSVFLFPPKPKDTLMISRTPEVTCVVVDVSHEDPEVKFNWYVDGVEVHNAKTKPREEQYNSTYRVVSVLTVLHQDWLNGKEYKCKVSNKALPASIEKTISKAKGQPREPQVCTLPPSREEMTKNQVSLSCAVKGFYPSDIAVEWESNGQPENNYKTTPPVLDSDGSFFLVSKLTVDKSRWQQGNVFSCSVMHEALHNRFTQKSLSLSPGK
chain 3: DIQLTQSPSTLSASVGDRVTITCRASESLDNYGIRFLTWFQQKPGKAPKLLMYAASNQGSGVPSRFSGSGSGTEFTLTISSLQPDDFATYYCQQTKEVPWSFGQGTKVEVKRTVAAPSVFIFPPSDEQLKSGTASVVCLLNNFYPREAKVQWKVDNALQSGNSQESVTEQDSKDSTYSLSSTLTLSKADYEKHKVYACEVTHQGLSSPVTKSFNRGEC
Cytokine Release Assay (TNFα) Donor 0 EC50 [1]: 6.01 nM | Cytokine Release Assay (TNFα) Donor 0 gMFI max [1]: 28500 gMFI | Cytokine Release Assay (TNFα) Donor 1 gMFI max [1]: 4840 gMFI | Cytokine Release Assay (TNFα) Donor 2 EC50 [1]: 4.03 nM | Cytokine Release Assay (TNFα) Donor 2 gMFI max [1]: 10100 gMFI | Cytokine Release Assay (TNFα) Donor 3 EC50 [1]: 5.95 nM | Cytokine Release Assay (TNFα) Donor 3 gMFI max [1]: 17900 gMFI | Cytokine Release Assay (IL2) Donor 0 EC50 [2]: 6.63 nM | Cytokine Release Assay (IL2) Donor 0 gMFI max [2]: 39300 gMFI | Cytokine Release Assay (IL2) Donor 1 EC50 [2]: 2.87 nM | Cytokine Release Assay (IL2) Donor 1 gMFI max [2]: 16200 gMFI | Cytokine Release Assay (IL2) Donor 2 EC50 [2]: 1.73 nM | Cytokine Release Assay (IL2) Donor 2 gMFI max [2]: 19200 gMFI | Cytokine Release Assay (IL2) Donor 3 EC50 [2]: 1.84 nM | Cytokine Release Assay (IL2) Donor 3 gMFI max [2]: 45900 gMFI

B2: CD3 × CD33-BspAb51 (bispecific antibody)
chain 1: not shown
chain 2: EVQLVQSGAEVKKPGSSVKVSCKASGYTITDSNIHWVRQAPGQSLEWIGYIYPYNGGTDYNQKFKNRATLTVDNPTNTAYMELSSLRSEDTAFYYCVNGNPWLAYWGQGTLVTVSSASTKGPSVFPLAPSSKSTSGGTAALGCLVKDYFPEPVTVSWNSGALTSGVHTFPAVLQSSGLYSLSSVVTVPSSSLGTQTYICNVNHKPSNTKVDKRVEPKSCDKTHTCPPCPAPEFEGGPSVFLFPPKPKDTLMISRTPEVTCVVVDVSHEDPEVKFNWYVDGVEVHNAKTKPREEQYNSTYRVVSVLTVLHQDWLNGKEYKCKVSNKALPASIEKTISKAKGQPREPQVCTLPPSREEMTKNQVSLSCAVKGFYPSDIAVEWESNGQPENNYKTTPPVLDSDGSFFLVSKLTVDKSRWQQGNVFSCSVMHEALHNRFTQKSLSLSPGK
chain 3: DIQLTQSPSTLSASVGDRVTITCRASESLDNYGIRFLTWFQQKPGKAPKLLMYAASNQGSGVPSRFSGSGSGTEFTLTISSLQPDDFATYYCQQTKEVPWSFGQGTKVEVKRTVAAPSVFIFPPSDEQLKSGTASVVCLLNNFYPREAKVQWKVDNALQSGNSQESVTEQDSKDSTYSLSSTLTLSKADYEKHKVYACEVTHQGLSSPVTKSFNRGEC
Cytokine Release Assay (TNFα) Donor 0 EC50 [1]: 0.203 nM | Cytokine Release Assay (TNFα) Donor 0 gMFI max [1]: 51700 gMFI | Cytokine Release Assay (TNFα) Donor 1 EC50 [1]: 0.535 nM | Cytokine Release Assay (TNFα) Donor 1 gMFI max [1]: 6200 gMFI | Cytokine Release Assay (TNFα) Donor 2 EC50 [1]: 0.18 nM | Cytokine Release Assay (TNFα) Donor 2 gMFI max [1]: 14800 gMFI | Cytokine Release Assay (TNFα) Donor 3 EC50 [1]: 0.166 nM | Cytokine Release Assay (TNFα) Donor 3 gMFI max [1]: 36200 gMFI | Cytokine Release Assay (IL2) Donor 0 EC50 [2]: 0.181 nM | Cytokine Release Assay (IL2) Donor 0 gMFI max [2]: 105000 gMFI | Cytokine Release Assay (IL2) Donor 1 EC50 [2]: 0.529 nM | Cytokine Release Assay (IL2) Donor 1 gMFI max [2]: 37800 gMFI | Cytokine Release Assay (IL2) Donor 2 EC50 [2]: 0.205 nM | Cytokine Release Assay (IL2) Donor 2 gMFI max [2]: 27300 gMFI | Cytokine Release Assay (IL2) Donor 3 EC50 [2]: 0.0995 nM | Cytokine Release Assay (IL2) Donor 3 gMFI max [2]: 156000 gMFI

B3: CD3 × CD33-BspAb45 (bispecific antibody)
chain 1: EVQLVESGGGLVQPGGSLRLSCAASGFTFSRYSMNWVRQAPGKCLEWVSYISSSSSSIYYADSVKGRFTISRDNAKNSLYLQMNSLRDEDTAVYYCARDRRATLDYWGQGTLVTVSSGGGGSGGGGSGGGGSGGGGSNFMLTQPHSVSESPGKTVTISCTRSSGSIASNYVQWYQQRPGSSPTTVIYEDNQRPSGVPDRFSGSIDSSSNSASLTISGLKTEDEADYYCQSYDSSNHVFGCGTKLTVLDKTHTCPPCPAPEFEGGPSVFLFPPKPKDTLMISRTPEVTCVVVDVSHEDPEVKFNWYVDGVEVHNAKTKPREEQYNSTYRVVSVLTVLHQDWLNGKEYKCKVSNKALPASIEKTISKAKGQPREPQVYTLPPCREEMTKNQVSLWCLVKGFYPSDIAVEWESNGQPENNYKTTPPVLDSDGSFFLYSKLTVDKSRWQQGNVFSCSVMHEALHNHYTQKSLSLSPGK
chain 2: EVQLVQSGAEVKKPGSSVKVSCKASGYTITDSNIHWVRQAPGQSLEWIGYIYPYNGGTDYNQKFKNRATLTVDNPTNTAYMELSSLRSEDTAFYYCVNGNPWLAYWGQGTLVTVSSASTKGPSVFPLAPSSKSTSGGTAALGCLVKDYFPEPVTVSWNSGALTSGVHTFPAVLQSSGLYSLSSVVTVPSSSLGTQTYICNVNHKPSNTKVDKRVEPKSCDKTHTCPPCPAPEFEGGPSVFLFPPKPKDTLMISRTPEVTCVVVDVSHEDPEVKFNWYVDGVEVHNAKTKPREEQYNSTYRVVSVLTVLHQDWLNGKEYKCKVSNKALPASIEKTISKAKGQPREPQVCTLPPSREEMTKNQVSLSCAVKGFYPSDIAVEWESNGQPENNYKTTPPVLDSDGSFFLVSKLTVDKSRWQQGNVFSCSVMHEALHNRFTQKSLSLSPGK
chain 3: DIQLTQSPSTLSASVGDRVTITCRASESLDNYGIRFLTWFQQKPGKAPKLLMYAASNQGSGVPSRFSGSGSGTEFTLTISSLQPDDFATYYCQQTKEVPWSFGQGTKVEVKRTVAAPSVFIFPPSDEQLKSGTASVVCLLNNFYPREAKVQWKVDNALQSGNSQESVTEQDSKDSTYSLSSTLTLSKADYEKHKVYACEVTHQGLSSPVTKSFNRGEC
Cytokine Release Assay (TNFα) Donor 0 EC50 [1]: 0.0919 nM | Cytokine Release Assay (TNFα) Donor 0 gMFI max [1]: 71300 gMFI | Cytokine Release Assay (TNFα) Donor 1 gMFI max [1]: 4850 gMFI | Cytokine Release Assay (TNFα) Donor 2 EC50 [1]: 0.0334 nM | Cytokine Release Assay (TNFα) Donor 2 gMFI max [1]: 12100 gMFI | Cytokine Release Assay (TNFα) Donor 3 EC50 [1]: 0.0216 nM | Cytokine Release Assay (TNFα) Donor 3 gMFI max [1]: 31800 gMFI | Cytokine Release Assay (IL2) Donor 0 EC50 [2]: 0.0539 nM | Cytokine Release Assay (IL2) Donor 0 gMFI max [2]: 50900 gMFI | Cytokine Release Assay (IL2) Donor 1 EC50 [2]: 0.0869 nM | Cytokine Release Assay (IL2) Donor 1 gMFI max [2]: 22200 gMFI | Cytokine Release Assay (IL2) Donor 2 EC50 [2]: 0.0204 nM | Cytokine Release Assay (IL2) Donor 2 gMFI max [2]: 26200 gMFI | Cytokine Release Assay (IL2) Donor 3 EC50 [2]: 0.0205 nM | Cytokine Release Assay (IL2) Donor 3 gMFI max [2]: 67900 gMFI

From patent US20260167721A1 (ABLEXIS, published 2026)
